Series [1] deals with total cell infiltration in the lung airway space. Description: Exacerbation/tobacco smoke mouse model: total cell infiltration in lung airway space (BALF). The format is in vivo, C57BL/6J mice. As for the experimental part:
(§1) The aim of the study was to determine the effect of IL-18BP, administered at three dose levels, by the sub-cutaneous route, on Polyinosinic:polycytidylic acid-induced exacerbation of tobacco-smoke induced pulmonary inflammation, in C57BL/6J mice. High level of dexamethasone, dosed orally, was included in the study as a reference agent.
(§2) Mice received either vehicle (PBS) or IL-18BP. IL-18BP was given subcutaneously to 3 groups of animals respectively at 1, 3 or 10 mg/kg 2 h prior to the initial tobacco smoke exposure from Day 1 to Day 4. Mice received orally either vehicle or dexamethasone (10 mg/kg) 1 h prior to each twice daily exposure. Mice received by intranasal administration either the vehicle or Polyinosinic:polycytidylic acid (2 mg/kg) 2 h prior to the initial air or tobacco smoke exposure on Day 4 to induce lung inflammation exacerbation. Tobacco smoke exposure was performed during the morning and afternoon as follow: Day 1 for 15 min, Day 2 for 25 min, Day 3 for 30 min and Day 4 for 30 min.
(§3) Following the above treatments, animals were terminally anaesthetised on Day 5. After that, a blood sample was taken via the sub-clavian artery (plasma) and the animals were bronchoalveloar lavaged with 3×0.4 ml of PBS for further cellular and cytokine/mediator analysis. […] Cells recovered from the BALF were counted using the Sysmex cell counter.

The target of series [2] is T1, IL-18 (Homo sapiens, UniProt Q14116).
T1 sequence (Q14116 37-193): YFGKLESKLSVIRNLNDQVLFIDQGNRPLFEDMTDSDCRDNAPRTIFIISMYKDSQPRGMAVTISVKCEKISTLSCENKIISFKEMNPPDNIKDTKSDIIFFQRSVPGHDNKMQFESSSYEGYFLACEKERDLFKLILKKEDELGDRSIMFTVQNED
In words: New BIAcore setup: IL-18BP bound to chip, affinity to IL-18. It counts as binding. Particulars: IL-18BP on BIAcore chip. An excerpt:
Following the above KD results obtain by titration, we tested the binding affinity of IL-18BP to IL-18 with a simpler BIAcore setup consisting of binding IL-18BP to the BIAcore chip and then testing its affinity to IL-18. The method setup is the contrary of Kim et al 2000^8, who bound IL-18 to the BIAcore chip with a monoclonal antibody and then tested the affinity of the complex antibody-IL-18 to IL-18BP.
In general terms: In SPR one partner is held on a chip, and binding of the other changes the refractive index at the surface.

For series [3], the target named is T1, IL-18. Particulars: cited from earlier work.
Series [4] deals with T1, IL-18. In words: Titration of free IL-18 as a function of IL-18BP level (free IL-18 ELISA). The format is binding. Particulars: 400 pg/mL IL-18 in PBS with 5% BSA. Here is the method:
A constant quantity of recombinant IL-18 was titrated as a function of different and well defined quantities of IL-18BP in order to understand when free IL-18 is not any more detectable. A PBS solution of 400 pg/mL IL-18 supplemented by 5% BSA was spiked with defined quantities of IL-18BP ranging from 0 to 10′000 pg/mL. The molar ratios were calculated according to the respective molecular weight of IL-18 and IL-18BP. The free IL-18 detection was performed with ELISA using IL-18BP for IL-18 as described above. […] In contrast, when molar ratio is lower than 15, free IL-18 is easily detectable.
For orientation: In an ELISA, binding on a coated surface is turned into a signal by an enzyme label.

The nature of series [5]: Exacerbation/tobacco smoke mouse model: weight loss and tolerability. The format is in vivo, C57BL/6J mice. As for the experimental part: as §1, §2
As an example, weight loss was mitigated by IL-18BP even though both Students t-test and ANOVA statistical analyses were not significant (see FIG. 10). A large majority of mice receiving 3 and 10 mg/kg IL-18BP lost respectively 6-7% weight in contrast to the control exposed to tobacco smoke and p[I:C] that lost about 9%.

In a further series the test system is G-CSF. In words: Exacerbation/tobacco smoke mouse model: G-CSF in BALF by ELISA. The format is in vivo, C57BL/6J mice. The conditions noted are these: three tested doses 1, 3, 10 mg/kg s.c., day 5, FIG. 9. As for the experimental part: as §1
Mice received either vehicle (PBS) or IL-18BP. IL-18BP was given subcutaneously to 3 groups of animals respectively at 1, 3 or 10 mg/kg 2 h prior to the initial tobacco smoke exposure from Day 1 to Day 4. Mice received orally either vehicle or dexamethasone (10 mg/kg) 1 h prior to each twice daily exposure. Mice received by intranasal administration either the vehicle or Polyinosinic:polycytidylic acid (2 mg/kg) 2 h prior to the initial air or tobacco smoke exposure on Day 4 to induce lung inflammation exacerbation. […]
Following the above treatments, animals were terminally anaesthetised on Day 5. […] Cells recovered from the BALF were counted using the Sysmex cell counter.
G-CSF is well acknowledged as key cytokine stimulating the survival, proliferation, differentiation, and function of neutrophil precursors and mature neutrophils. […] The presence of G-CSF in the BALF was monitored with a commercially available ELISA kit.

Series [6] has as its target T1, IL-18. In words: KD calculation by titration with free IL-18 ELISA (IL-18BP capture). It counts as binding. The conditions noted are these: read-out: KD between human IL-18 and IL-18BP by titration. As for the experimental part:
Microplate wells are coated with an appropriate volume phosphate buffer saline solution containing recombinant human IL-18BP. Plates are incubated for a period of time at 4° C. and then stabilized with a blocking buffer containing bovine serum albumin or other appropriate blocking agents. Once the reaction is finished, microplates are sealed and stored at 4° C. until used for detection of free IL-18. Microplates can also be dried in a stabilizing solution allowing storage at room temperature and then be reconstituted by hydration when needed for assay.
As an example, for a final reaction volume of 100 μl, dispense first 80 μl of biotin/antibody conjugate. Samples or biological fluids containing free IL-18 are tested with the IL-18BP coated microplates. After that, 20 μl sample volume containing biological fluid or standard is dispensed per microplate well. Non-diluted or diluted biological fluid can be but is not restricted to serum, urine, tear, saliva, bile, sweat, exhalation or expiration, sputum, bronchoalveolar fluid, sebum, cellular, gland, mucosa or tissue secretion, biopsy, homogenized tissue. […] The resulting reactions are then monitored with a microplate reader at an appropriate nanometer wavelength for absorbance or fluorescence of the produced reagent. […]
KD was calculated based on the following formula: KD=[free IL-18]×[free IL-18BP]/[IL-18/IL-18BP complex] […]

The test system of series [7] is neutrophil infiltration in the lung airway space. Description: Exacerbation/tobacco smoke mouse model: neutrophil infiltration in lung airway space. It counts as in vivo, C57BL/6J mice. As for the experimental part: as §1, §2, §3

Where two headings read alike, the source gives them in different places.

B1: IL-18BP: IL-18 Binding Protein, naturally occurring IL-18 antagonist, as shown in SEQ ID NO: 7 (protein)
chain: TPVSQTTTAATASVRSTKDPCPSQPPVFPAAKQCPALEVTWPEVEVPLNGTLSLSCVACSRFPNFSILYWLGNGSFIEHLPGRLWEGSTSRERGSTGTQLCKALVLEQLTPALHSTNFSCVLVDPEQVVQRHVVLAQLWAGLRATLPPTQEALPSSHSSPQQQG
modifications: IL-18 binding protein
Turning to B1, the “Exacerbated inflammation inhibition (total cell infiltration)” value in series [1] (10 mg/kg s.c., day 5, FIG. 6) is “clear and statistically relevant efficacy”. Further, in series [1] (3 and 10 mg/kg s.c., day 5, compared to dexamethasone, FIG. 5), the “Mitigation of total cell infiltration in the lung” value was “statistically valuable efficacy”. The Ka in the series with IL-18 [2] is 5.3 ± 1.2 10^+5/Ms. For the same molecule, the Kd with IL-18 [3] (BIAcore, literature, read-out: KD reported in the literature (Kim et al 2000)) is 400 pM; in the series with IL-18 [3] (used in Law of Mass Action calculation, read-out: Dissociation constant as calculated by Kim et al 2000), 400 pM; in the series with IL-18 [6] (PBS supplemented by 5% BSA diluent) it was 35 pM; in the series with IL-18 [6] (serum diluent (healthy volunteer sera depleted in endogenous IL-18BP)), 50 pM. Further, the “IL-18BP concentration at which 400 pg/mL IL-18 detection is near background” value in the series with IL-18 [4] is recorded as not below 6000 pg/mL. In addition, the Weight loss in series [5] (3 and 10 mg/kg s.c., large majority of mice, day 5) is reported as 6-7%. Also, the Tolerability result in series [5] (exacerbation/tobacco smoke mouse model) was “well tolerated”. For the same molecule, the “Mitigation of G-CSF release in the lung airways” value in the series on G-CSF is listed as “statistically relevant effect”. Besides, the “Inhibition of neutrophil infiltration” value is recorded as “best statistical efficacy” in series [7] (10 mg/kg s.c., day 5, FIG. 8); “statistically valuable efficacy” in series [7] (3 and 10 mg/kg s.c., day 5, FIG. 7).
